Source: publication PMC4007306 (Archives of biochemistry and biophysics, 2013)

Legend:
[1] = biological target: T1, AdoMet synthetase (MAT, MetK) (Pseudomonas aeruginosa, UniProt Q9I5Z0); assay: coupled enzyme assay, Dixon plot; format: biochemical
T1 sequence (Q9I5Z0 1-396): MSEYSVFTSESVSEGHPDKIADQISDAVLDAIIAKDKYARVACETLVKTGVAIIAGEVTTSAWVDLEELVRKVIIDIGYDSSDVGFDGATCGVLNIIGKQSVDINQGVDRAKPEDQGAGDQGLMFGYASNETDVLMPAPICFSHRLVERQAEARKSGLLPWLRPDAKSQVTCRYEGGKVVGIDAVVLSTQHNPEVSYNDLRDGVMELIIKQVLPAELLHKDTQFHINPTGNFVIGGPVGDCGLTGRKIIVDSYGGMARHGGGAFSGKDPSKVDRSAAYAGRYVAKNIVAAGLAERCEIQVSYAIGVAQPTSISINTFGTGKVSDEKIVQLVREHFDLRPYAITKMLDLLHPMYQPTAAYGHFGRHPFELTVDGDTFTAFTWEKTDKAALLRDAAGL

[2] = biological target: AdoMet synthetase (MAT, MetK); assay: coupled enzyme assay, Dixon plot; format: biochemical, Campylobacter jejuni
[3] = biological target: S-adenosylmethionine synthetase (AdoMet synthetase, MAT) from Neisseria meningitidis WUE2594 (Neisseria meningitidis WUE2594); assay: dynamic light scattering
[4] = biological target: S-adenosylmethionine synthetase (AdoMet synthetase, MAT) from Neisseria meningitidis WUE2594 (Neisseria meningitidis WUE2594); assay: native gel or EMSA
dynamic light scattering = biological target: the molecule itself; assay: dynamic light scattering
[5] = substrate: CCOC(=O)[C@@H](N)CCSC; assay: coupled pyrophosphate enzyme assay, alternative substrate kinetics; format: biochemical, Escherichia coli; conditions: MgATP L-methionine binding site
[6] = substrate: COC(=O)[C@@H](N)CCSC; assay: as above; format: biochemical, Escherichia coli; conditions: MgATP L-methionine binding site
[7] = substrate: CSCC[C@H](N)C(=O)O; assay: coupled pyrophosphate enzyme assay, steady-state kinetics; format: biochemical, Pseudomonas aeruginosa; conditions: MgATP L-methionine binding site of the active site

For `NC(=O)SC[C@H](N)C(=O)O` [S-carbamyl-L-cysteine], the Ki [1] was about 4 mM.

With `CSCC[C@H](N)CC(=O)O` [β-methionine, (R)-3-amino-5-(methylthio)pentanoic acid] the Ki [2] was about 7 mM.

Molecule “S-adenosylmethionine synthetase (AdoMet synthetase, MAT) from Neisseria meningitidis WUE2594 (enzyme)” has a stoichiometry N [3] of 4 and a stoichiometry N [4] of 4.

B1: S-adenosylmethionine synthetase (AdoMet synthetase, MAT) from Campylobacter jejuni 81-176 (enzyme, UniProt Q0P9F8 1-398, looked up)
chain: MYLFTSEVVSAGHPDKCADIIADTIVDILLKNDKNSRVASEVFVAGNKVVIGGEVKSNHKLSKADYDNLVKDVLKNIGYDGAGHFSKEQCLHPDEVDVMVFLNEQSPDINQGVDQEDGETGAGDQGIMFGFASCEAEEYMPAAISYARMLCDRVYAYAKANPHELGVDIKTQVTIDYGTKANFENCKPQSIHTIVVSAPCVESMKIEDLRSLVMKLILDSNLPKELFDPNKTRILINPTGKYVNHSSLHDSGLTGRKLIVDSFGGYSPIGGGAQSSKDYTKVDRSGLYAGRWLAKNIVAAGLAKKCIVQLSYAIGVAKPTSVSVDCMGTNTSVNDDVLSDFVMQNFSLTPNWIRDKFHLDKPSKETFLYADVAARGQVGQKDYPWEKLDALEQFKKLL
For B1, the “stoichiometry N” value (dynamic light scattering) was 2.

B2: S-adenosylmethionine synthetase (AdoMet synthetase, MAT) from Escherichia coli K12 (enzyme, UniProt B1XFA4 1-384, looked up)
chain: MAKHLFTSESVSEGHPDKIADQISDAVLDAILEQDPKARVACETYVKTGMVLVGGEITTSAWVDIEEITRNTVREIGYVHSDMGFDANSCAVLSAIGKQSPDINQGVDRADPLEQGAGDQGLMFGYATNETDVLMPAPITYAHRLVQRQAEVRKNGTLPWLRPDAKSQVTFQYDDGKIVGIDAVVLSTQHSEEIDQKSLQEAVMEEIIKPILPAEWLTSATKFFINPTGRFVIGGPMGDCGLTGRKIIVDTYGGMARHGGGAFSGKDPSKVDRSAAYAARYVAKNIVAAGLADRCEIQVSYAIGVAEPTSIMVETFGTEKVPSEQLTLLVREFFDLRPYGLIQMLDLLHPIYKETAAYGHFGREHFPWEKTDKAQLLRDAAGLK
For B2, the “stoichiometry N” value (dynamic light scattering) was 4.

B3: AdoMet synthetase (MAT, MetK) (Escherichia coli K-12) (protein)
chain: AKHLFTSESVSEGHPDKIADQISDAVLDAILEQDPKARVACETYVKTGMVLVGGEITTSAWVDIEEITRNTVREIGYVHSDMGFDANSCAVLSAIGKQSPDINQGVDRADPLEQGAGDQGLMFGYATNETDVLMPAPITYAHRLVQRQAEVRKNGTLPWLRPDAKSQVTFQYDDGKIVGIDAVVLSTQHSEEIDQKSLQEAVMEEIIKPILPAEWLTSATKFFINPTGRFVIGGPMGDCGLTGRKIIVDTYGGMARHGGGAFSGKDPSKVDRSAAYAARYVAKNIVAAGLADRCEIQVSYAIGVAEPTSIMVETFGTEKVPSEQLTLLVREFFDLRPYGLIQMLDLLHPIYKETAAYGHFGREHFPWEKTDKAQLLRDAAGLK
Work on B3 yielded a Km [5] of 0.12 ± 0.01 mM and a Km [6] of 0.17 ± 0.05 mM.

B4: S-adenosylmethionine synthetase (AdoMet synthetase, MAT) from Pseudomonas aeruginosa PA01 (enzyme, UniProt B7V4D3 1-396, looked up)
chain: T1 sequence (Q9I5Z0 1-396)
With B4 the Km [7] was 0.040 ± 0.005 mM and the “stoichiometry N” value (dynamic light scattering) was 4.
